Test results reported in patent US20120201781A1 (AbbVie / Abbott, published 2012).
Values belong to the binder of their own block, whether it stands above or below them.

Tests used:
[1] = molecular target: T1, recombinant human IL-1β (human, UniProt P01584 117-269); test: SPR (Biacore)
T1 construct: Recombinant protein; also called hIL-1β; rhIL-1β

[2] = molecular target: T1, recombinant human IL-1β; test: SPR (Biacore), mAb captured via goat anti-mouse IgG
[3] = molecular target: T1, recombinant human IL-1β; test: cell-based or functional assay
[4] = molecular target: T1, recombinant human IL-1β; test: SPR (Biacore), saturating binding
[5] = molecular target: T1, recombinant human IL-1β; test: cell-based or functional assay; remark: listed apart in the source
[6] = molecular target: T1, recombinant human IL-1β; test: SPR (Biacore), hIL-1β as 1st antigen
Experimental: (§1) In addition, tetravalent dual-specific antigen binding of DVD-Ig binding protein was also analyzed by Biacore (Table 14). DVD-Ig binding protein was first captured via a goat anti-human Fc antibody on the Biacore sensor chip, and the first antigen was injected and a binding signal observed. As the DVD-Ig binding protein was saturated by the first antigen, the second antigen was then injected and the second signal observed. This was done either by first injecting IL-1β then IL-1α or by first injecting IL-1α followed by IL-1β for DVD2-Ig binding protein. In either sequence, a dual-binding activity was detected. Similar results were obtained for DVD1-Ig binding protein. Thus, each DVD-Ig binding protein was able to bind both antigens simultaneously as a dual-specific tetravalent molecule. […] Upon the injection of the second antigen, while DVD-Ig binding protein was already occupied by the first antigen, the stoichiometry of both DVD-Igs binding protein to the second antigen (i.e., hIL-1α or hIL-1β was between 1.0 and 1.3. Thus, DVD-Ig binding protein was able to bind two IL-1α and two IL-β molecules. DVD-Ig binding protein was first captured via a goat anti-human Fc antibody on the Biacore sensor chip, and the first antigen was injected and a binding signal observed, followed by the injection of the second antigen.

[7] = molecular target: T2, recombinant human IL-1α (human, UniProt P01583 113-271); test: SPR (Biacore 3000), saturating binding
T2 construct: Purified recombinant protein bought from R&D Systems; also called hIL-1α; rhIL-1α
T2 sequence: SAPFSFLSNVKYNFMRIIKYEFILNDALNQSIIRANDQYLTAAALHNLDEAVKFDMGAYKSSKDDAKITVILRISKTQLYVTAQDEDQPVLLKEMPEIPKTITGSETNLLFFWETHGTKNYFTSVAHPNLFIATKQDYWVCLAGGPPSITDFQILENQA
Experimental: (§2) The association and dissociation rate constants, kon (M-1s-1) and koff (s-1) were determined under a continuous flow rate of 25 ml/minute. […] The equilibrium dissociation constant (M) of the reaction between DVD-Ig molecule and rhIL1α/β was then calculated from the kinetic rate constants by the following formula: KD=koff/kon. Aliquots of rhIL1α/β samples were also simultaneously injected over a blank reference and reaction CM surface to record and subtract any nonspecific binding background to eliminate the majority of the refractive index change and injection noise. Surfaces were regenerated with two subsequent […] injections of 10 mM Glycine (pH 1.5) at a flow rate of […]. The anti-Fc antibody immobilized surfaces were completely regenerated and retained their full capture capacity over twelve cycles. The apparent stoichiometry of the captured DVD-Ig-rhIL1α/β complex was calculated under saturating binding conditions (steady-state equilibrium) using the following formula: […]
(§3) The affinity of the two DVD-Ig binding proteins to hIL-1 as compared to the affinity of chimeric antibodies to hIL-1 was similar as indicated by the evaluation of the stoichiometry to IL-1. Both chimeric antibodies, being bivalent monospecific, bound to IL-1α and IL-1β on Biacore with a stoichiometry of 1.6 and 1.7, respectively. This is common for an IgG due to inter-molecular interference when antibodies are immobilized densely on the Biacore sense chip resulting in stoichiometry being in the range from 1.5 to 2.0.

[8] = molecular target: T1, recombinant human IL-1β; test: SPR (Biacore 3000), saturating binding
Experimental: as §2, §3

[9] = molecular target: T1, recombinant human IL-1β; test: SPR (Biacore), hIL-1β as 2nd antigen after hIL-1α
Experimental: as §1

[10] = molecular target: T2, recombinant human IL-1α; test: SPR (Biacore 3000), binder captured via goat anti-human IgG Fc
Experimental: (§4) Approximately, 5000 RU of goat anti-human IgG Fcγ fragment specific polyclonal antibody (Pierce Biotechnology Inc, Rockford, Ill.) diluted in 10 mM sodium acetate (pH 4.5) was directly immobilized across a CM5 research grade biosensor chip using a standard amine coupling kit according to manufacturer's instructions and procedures at […]. Unreacted moieties on the biosensor surface were blocked with ethanolamine. Modified carboxymethyl dextran surface in flowcell 2 and 4 was used as a reaction surface. Unmodified carboxymethyl dextran without goat anti-human IgG in flow cell 1 and 3 was used as the reference surface. For kinetic analysis, rate equations derived from the 1:1 Langmuir binding model were fitted simultaneously to association and dissociation phases of all ten injections (using global fit analysis) using the Bioevaluation 4.0.1 software. Purified DVD-Ig samples were diluted in HEPES-buffered saline for capture across goat anti-human IgG Fc specific reaction surfaces and injected over reaction matrices at a flow rate of […]. The association and dissociation rate constants, kon (M-1s-1) and koff (s-1) were determined under a continuous flow rate of 25 ml/minute. […] The equilibrium dissociation constant (M) of the reaction between DVD-Ig molecule and rhIL1α/β was then calculated from the kinetic rate constants by the following formula: KD=koff/kon. Aliquots of rhIL1α/β samples were also simultaneously injected over a blank reference and reaction CM surface to record and subtract any nonspecific binding background to eliminate the majority of the refractive index change and injection noise. Surfaces were regenerated with two subsequent […] injections of 10 mM Glycine (pH 1.5) at a flow rate of […]. The anti-Fc antibody immobilized surfaces were completely regenerated and retained their full capture capacity over twelve cycles. The apparent stoichiometry of the captured DVD-Ig-rhIL1α/β complex was calculated under saturating binding conditions (steady-state equilibrium) using the following formula: […]

[11] = molecular target: T1, recombinant human IL-1β; test: as above
Experimental: as §4

[12] = molecular target: T2, recombinant human IL-1α; test: SPR (Biacore)
Experimental: (§5) The equilibrium dissociation constant (M) of the reaction between DVD-Ig molecule and rhIL1α/β was then calculated from the kinetic rate constants by the following formula: KD=koff/kon. Aliquots of rhIL1α/β samples were also simultaneously injected over a blank reference and reaction CM surface to record and subtract any nonspecific binding background to eliminate the majority of the refractive index change and injection noise. Surfaces were regenerated with two subsequent […] injections of 10 mM Glycine (pH 1.5) at a flow rate of […]. The anti-Fc antibody immobilized surfaces were completely regenerated and retained their full capture capacity over twelve cycles. The apparent stoichiometry of the captured DVD-Ig-rhIL1α/β complex was calculated under saturating binding conditions (steady-state equilibrium) using the following formula: […]
as §3

[13] = molecular target: T1, recombinant human IL-1β; test: SPR (Biacore); remark: listed apart in the source
Experimental: as §5, §3

[14] = molecular target: T2, recombinant human IL-1α; test: cell-based or functional assay
[15] = molecular target: T1, recombinant human IL-1β; test: cell-based or functional assay; remark: listed apart in the source
[16] = molecular target: T2, recombinant human IL-1α; test: cell-based or functional assay; remark: listed apart in the source
[17] = molecular target: T2, recombinant human IL-1α; test: SPR (Biacore), hIL-1α as 1st antigen
Experimental: as §1

[18] = molecular target: T2, recombinant human IL-1α; test: SPR (Biacore), hIL-1α as 2nd antigen after hIL-1β
Experimental: as §1

[19] = molecular target: T2, recombinant human IL-1α; test: SPR (Biacore); remark: listed apart in the source
[20] = molecular target: T2, recombinant human IL-1α; test: SPR (Biacore), mAb captured via goat anti-mouse IgG
[21] = molecular target: T2, recombinant human IL-1α; test: SPR (Biacore), saturating binding
[22] = molecular target: T2, recombinant human IL-1α; test: cell-based or functional assay; remark: listed apart in the source

B2: hIL-1α/β DVD2-Ig binding protein (bispecific antibody, human IgG1, kappa)
heavy: not shown
light: NIVLTQSPASLAVSLGQRATISCRASESVDSYGNSYMHWYQQKPGQPPKLLIYLASNLESGVPARFSGSGSRTDFTLTIDPVEADDAATYYCQQNNEDPFTFGSGTKLEIKRADAAPNIQMTQTTSSLSASLGDRVTISCRASQDISNCLNWYQQKPDGTVKLLIYYTSRLHSGVPSRFSGSGSGTDYSLTISNLEQEDIATYFCQQGKTLPYAFGGGTKLEINRTVAAPSVFIFPPSDEQLKSGTASVVCLLNNFYPREAKVQWKVDNALQSGNSQESVTEQDSKDSTYSLSSTLTLSKADYEKHKVYACEVTHQGLSSPVTKSFNRGEC
notes: 13F5.G5 V - linker (heavy AKTTPP, light ADAAP) - 3D12.E3 V, human Cγ1/Cκ
- Stoichiometry hIL-1β:DVD-Ig [6]: 1.6
- Stoichiometry [7]: 2
- Stoichiometry [8]: 1.8
- Stoichiometry hIL-1β:DVD-Ig [9]: 1.3
- Kd [10]: 3.42 nM
- koff [10]: 0.000252 s⁻¹
- kon [10]: 73500 M⁻¹ s⁻¹
- Kd [11]: 0.798 nM
- koff [11]: 0.00095 s⁻¹
- kon [11]: 1.19e+06 M⁻¹ s⁻¹
- fold lower affinity than the chimeric 3D12.E3 antibody [12]: 3 fold
- fold higher affinity than DVD1-Ig binding protein [13]: 3 fold
- neutralizing activity in MRC-5 bioassay, fold less than the chimeric antibodies [14]: 3 fold
- neutralizing activity in MRC-5 bioassay, fold higher than DVD1-Ig [15]: 3 fold
- Potency (IC50) M, MRC-5 bioassay [16]: 2.9 nM
- Potency (IC50) M, MRC-5 bioassay [3]: 1.6 nM
- Stoichiometry hIL-1α:DVD-Ig [17]: 1.8
- Stoichiometry hIL-1α:DVD-Ig [18]: 1.2

B4: murine monoclonal antibody 3D12.E3 (antibody, V domains shown)
VH: QIQLVQSGPELKKPGETVKISCKASGYTFRNYGMNWVKQAPGKDLKRMAWINTYTGESTYADDFKGRFAFSLETSASTAYLQINNLKNEDTATYFCARGIYYYGSSYAMDYWGQGTSVTVSS
VL: NIQMTQTTSSLSASLGDRVTISCRASQDISNCLNWYQQKPDGTVKLLIYYTSRLHSGVPSRFSGSGSGTDYSLTISNLEQEDIATYFCQQGKTLPYAFGGGTKLEINR
notes: Murine hybridoma mAb, anti-hIL-1α
- Kd [19]: 1.11 nM
- koff [19]: 0.000713 s⁻¹
- kon [19]: 643000 M⁻¹ s⁻¹
- Kd [20]: 1.11 nM
- Potency (IC50) M, MRC-5 bioassay [16]: 0.67 nM
- Stoichiometry [21]: 2
- IC50 (M), MRC-5 bioassay (inhibition of IL-8 production) [22]: 6.7e-10 M

Results, then the binder that gave them:

- Kd [1]: 0.291 nM
- koff [1]: 0.000621 s⁻¹
- kon [1]: 2.13e+06 M⁻¹ s⁻¹
- Kd [2]: 0.291 nM
- Potency (IC50) M, MRC-5 bioassay [3]: 0.6 nM
- Stoichiometry [4]: 1.8
- IC50 (M), MRC-5 bioassay (inhibition of IL-8 production) [5]: 6e-10 M
B1: murine monoclonal antibody 13F5.G5 (antibody, V domains shown)
VH: QVQLQQSGAELVRPGSSVKISCKASGYAFSSYWMNWVKQRPGQGLEWIGQIYPGDGDTNYNGKFKGKATLTADKSSSTSYMQLSGLTSEDSAMYFCVRFPTGNDYYAMDYWGQGTSVTVSS
VL: NIVLTQSPASLAVSLGQRATISCRASESVDSYGNSYMHWYQQKPGQPPKLLIYLASNLESGVPARFSGSGSRTDFTLTIDPVEADDAATYYCQQNNEDPFTFGSGTKLEIKR
notes: Murine hybridoma mAb, anti-hIL-1β

- Stoichiometry hIL-1β:DVD-Ig [6]: 1.5
- Stoichiometry [7]: 1.8
- Stoichiometry [8]: 1.5
- Stoichiometry hIL-1β:DVD-Ig [9]: 1
- Kd [10]: 2.83 nM
- koff [10]: 0.000105 s⁻¹
- kon [10]: 37000 M⁻¹ s⁻¹
- Kd [11]: 2.6 nM
- koff [11]: 0.00159 s⁻¹
- kon [11]: 609000 M⁻¹ s⁻¹
- fold lower affinity than the chimeric 3D12.E3 antibody [12]: 2 to 3 fold
- neutralizing activity in MRC-5 bioassay, fold less than the chimeric antibodies [14]: 3 fold
- Potency (IC50) M, MRC-5 bioassay [16]: 2.3 nM
- Potency (IC50) M, MRC-5 bioassay [3]: 3.1 nM
- Stoichiometry hIL-1α:DVD-Ig [17]: 2.3
- Stoichiometry hIL-1α:DVD-Ig [18]: 1.1
B3: hIL-1α/β DVD1-Ig binding protein (bispecific antibody, human IgG1, kappa)
heavy: not shown
light: NIVLTQSPASLAVSLGQRATISCRASESVDSYGNSYMHWYQQKPGQPPKLLIYLASNLESGVPARFSGSGSRTDFTLTIDPVEADDAATYYCQQNNEDPFTFGSGTKLEIKRNIQMTQTTSSLSASLGDRVTISCRASQDISNCLNWYQQKPDGTVKLLIYYTSRLHSGVPSRFSGSGSGTDYSLTISNLEQEDIATYFCQQGKTLPYAFGGGTKLEINRRTVAAPSVFIFPPSDEQLKSGTASVVCLLNNFYPREAKVQWKVDNALQSGNSQESVTEQDSKDSTYSLSSTLTLSKADYEKHKVYACEVTHQGLSSPVTKSFNRGEC
notes: 13F5.G5 variable domains fused directly (no linker) to the N-terminus of 3D12.E3 variable domains, human Cγ1/Cκ
